The target in the experiment is CTLA-4-Ig. The experiment in a line: -; modified from Xu et al., JI 2012.

Our source for the Kd values is patent US20220267443A1.

In general, Kd refers to a measure of binding affinity in units of concentration. CD86-Fc-His: the Kd was found to be 3.6 nM.

On to CD80-Fc-His, for which the dissociation constant (Kd) was 0.3 nM.
